Values joined by “and” are separate entries in the source; they are usually repeats but may differ in a detail not shown here. Equal entries are not always repeated. Blank lines part the entries; values can stand above or below the binder they belong to.
Assays:
Fc tagged human PDL1 = target: T1, Fc tagged human PDL1 (human, UniProt Q9NZQ7 19-239); assay: SPR
T1 construct: Bought (Sino Biological, cat. 10084-H02H); captured on the SPR chip; also called PDL1-Fc chimeric protein
Description: (§1) Affinity to PDL1 of the different species was determined by SPR measurements using a Biacore T200 device (GE Healthcare). An antibody specific for the Fc region of human IgGs was immobilized on a sensor chip (CM5 sensor chip, GE Healthcare) by amine-coupling. For all formats, with the exception of the Fc containing Morrison formats, PDL1-Fc chimeric protein from different species were captured by the immobilized antibody.
(§2) Three-fold serial dilutions of the molecules specific for PDL1 (0.12-90 nM) were injected into the flow cells for three minutes and dissociation was monitored for 10 minutes. After each injection cycle, surfaces were regenerated with one injection of a 3 M MgCl₂ solution. The apparent dissociation (kd) and association (kₐ) rate constants and the apparent dissociation equilibrium constant (KD) were calculated using one-to-one Langmuir binding model. Affinity to CD137 of the different species was determined using the identical setup as for PDL1 with the exception that CD137-Fc chimeric protein from different species were captured by the immobilized antibody.

Fc tagged human CD137 = target: T2, Fc tagged human CD137 (human, UniProt Q07011 24-186); assay: SPR
T2 construct: also called CD137-Fc chimeric protein
Description: as §1, §2

human PDL1 on cells = human PDL1 on cells (human, UniProt Q9NZQ7 19-290); assay: cell-based or functional assay
[1] = target: CD137 on Jurkat NFkB reporter cells (human, UniProt Q07011 24-255); assay: cell-based or functional assay
biotinylated human PDL1 [2] = target: T3, biotinylated human PDL1 (human, UniProt Q9NZQ7 19-238, limits assumed, biotinylated); assay: competition ELISA B7.1/PDL1
T3 construct: also called biotinylated PDL1
Description: Plates were blocked for 1 hour at room temperature by adding 300 μl of PBS with 1% BSA and 0.2% tween (dilution buffer) to each well. […] The mixtures were pre-incubated for 1 hour at room temperature under gentle agitation on a rotating mixer (21 rpm) and added to the microplates after 3 wash cycles with 450 μl wash buffer per well. Plates were incubated for 1.5 hours at room temperature under gentle agitation, then 10 ng/ml streptavidin-polyHRP40 was added to each microplate well after three washes with 450 μl of wash buffer per well. After 1 h incubation at RT, plates were washed three times with 450 μl wash buffer and TMB substrate solution was added. The enzymatic reaction was stopped after 6 minutes by addition of 1 M HCl and absorbance was measured at 450 nm using 690 nm as a reference wavelength. For calculation of IC₅₀ values, a four-parameter logistic (4PL) curve fit was performed in Graph Pad Prism using reference subtracted values.

biotinylated human PDL1 [3] = target: T3, biotinylated human PDL1; assay: competition ELISA PD-1/PDL1
Description: Plates were blocked for 1 hour at room temperature by adding 300 μl of PBS with i%BSA and 0.2% tween (dilution buffer) to each well. Inhibitors were serially diluted in 3-fold steps to final concentrations ranging from 300 to 0.005 ng/ml in dilution buffer containing 1 ng/ml biotinylated human PDL1. The mixtures were pre-incubated for 1 hour at room temperature under gentle agitation on a rotating mixer (21 rpm) and added to the microplates after 3 wash cycles with 450 μl wash buffer per well. Plates were incubated for 1.5 hours at room temperature under gentle agitation, then 10 ng/ml streptavidin-polyHRP40 was added to each microplate well after three washes with 450 μl of wash buffer per well. After 1 h incubation at RT, plates were washed three times with 450 μl wash buffer and TMB substrate solution was added. The enzymatic reaction was stopped after 6 minutes by addition of 1 M HCl and absorbance was measured at 450 nm using 690 nm as a reference wavelength. For calculation of IC₅₀ values, a four-parameter logistic (4PL) curve fit was performed in Graph Pad Prism using reference subtracted values.

B1: PRO1392 (scFv)
scFv: DIQMTQSPSSLSASVGDRVTITCQASQSINDYLAWYQQKPGKAPKLLIYKASTLASGVPSRFSGSGSGTDFTLTISSLQPEDFATYYCQQGYIITDIDNVFGTGTKVTVLGGGGGSGGGGSGGGGSGGGGSQVQLQESGPGLVKPSETLSLTCKASGFSFSSGYDMCWVRQPPGKGLEWIACVVAGSVDITYYASWAKGRVTISKDSSKNQVSLKLSSVTAADTAVYYCARKDAYSDAFNLWGQGTLVTVSS
notes: also called scFv of 33-03-G02 sc18
Kd (Fc tagged human PDL1): 0.00994 nM

B2: PRO1183 (scFv)
scFv: DFQLTQSPSSLSASVGDRVTITCQASQSINDYLAWYQQKPGKSPKLLIYKASTLASGVPSRFSGSGSGTDFTLTISSLQPEDFATYYCQQGYIITDIDNVFGTGTKVTVLGGGGGSGGGGSGGGGSGGGGSQSQLQESGPGLVKPSETLSLTCKASGFSFSSGYDMCWVRQPPGKGLEWIACVVAGSVDITYYASWAKGRVTISKDSSKNQVSLKLSSVTAADTAVYFCARKDAYSDAFNLWGQGTLVTVSS
notes: also called scFv of 33 03-G02 sc03
Kd (Fc tagged human PDL1): < 0.00209 nM

B3: PRO1360 (scFv)
scFv: DFQLTQSPSSLSASVGDRVTITCQASQSISNRLAWYQQKPGKPPKLLIYSASTLASGVPSRFSGSGSGTDFTLTISSLQPEDFATYYCQSTYYGNDGNAFGTGTKVTVLGGGGGSGGGGSGGGGSGGGGSESQLVESGGGLVQPGGSLRLSCAASGFSFSANYYPCWVRQAPGKGLEWIGCIYGGSSDITYDANWTKGRFTISRDNSKNTVYLQMNSLRAEDTAVYFCARSAWYSGWGGDLWGPGTLVTVSS
notes: anti-CD137 scFv; also called 38-27-A11 sc03 scFv
Kd (Fc tagged human CD137): 0.234 nM

B7: PRO1347 (scFv)
scFv: DIQMTQSPASLSASVGDRVTITCQASQSIGTYLAWYQQKPGKPPKLLIYRAFILASGVPSRFSGSGSGTDFTLTISSLQPEDFATYYCQSNFYSDSTTIGPNAFGTGTKVTVLGGGGGSGGGGSGGGGSGGGGSEVQLVESGGGLVQPGGSLRLSCAASGFSFNSDYWIYWVRQAPGKGLEWIASIYGGSSGNTQYASWAQGRFTISRDNSKNTVYLQMNSLRAEDTAVYFCARGYVDYGGATDLWGQGTLVTVSS
notes: also called scFv of 37-20-sc09.1; 37-20-B03-sc09
Kd (Fc tagged human PDL1): 0.009 nM

B8: PRO966 (other)
chain: DIQMTQSPSSLSASVGDRVTITCQASQSINDYLAWYQQKPGKAPKLLIYKASTLASGVPSRFSGSGSGTDFTLTISSLQPEDFATYYCQQGYIITDIDNVFGTGTKVTVLGGGGGSQVQLQESGPGLVKPSETLSLTCKVSGFSFNNDYDMCWIRQPPGKGLEWIGCIDTGDGSTYYASWAKGRVTISVDSSKNQFSLKLSSVTAADTAVYYCAREAASSSGYGMGYFDLWGQGTLVTVSSGGGGSGGGGSGGGGSGGGGSIQMTQSPSSLSASVGDRVTITCQSSQSVYDNNWLAWYQQKPGKAPKLLIYRASNLASGVPSRFSGSGSGTDFTLTISSLQPEDFATYYCQGTYLSSNWYWAFGTGTKVTVLGGGGGSQVQLQESGPGLVKPSETLSLTCKVSGFSFSSGYDMCWIRQPPGKGLEWIGCVVAGSVDITYYASWAKGRVTISVDSSKNQFSLKLSSVTAADTAVYYCARKDAYSDAFNLWGQGTLVTVSSGGGGSGGGGSIQMTQSPSSLSASVGDRVTITCQSSESVYSNNQLSWYQQKPGQPPKLLIYDASDLASGVPSRFSGSGSGTDFTLTISSLQPEDFATYYCAGGFSSSSDTAFGGGTKLTVLGGGGGSGGGGSGGGGSGGGGSEVQLVESGGGLVQPGGSLRLSCAASGFSLSSNAMGWVRQAPGKGLEYIGIISVGGFTYYASWAKGRFTISRDNSKNTVYLQMNSLRAEDTATYFCARDRHGGDSSGAFYLWGQGTLVTVSS
notes: trispecific scDb-scFv; also called PRO1052; 38-27-C05 sc01 scDb-i/33-03-G02 sc01 scDb-o/19-01-H04-sc03 scFv
binding result (Fc tagged human PDL1): binds | Kd (Fc tagged human CD137): 2.2 nM | koff (Fc tagged human CD137): 0.0022 s⁻¹

Continued, values first:

Kd (Fc tagged human CD137): 3.24 nM and 3.07 nM
B4: PRO1359 (scFv)
scFv: DIQMTQSPSSLSASVGDRVTITCQASQSISNRLAWYQQKPGKAPKLLIYSASTLASGVPSRFSGSGSGTDFTLTISSLQPEDFATYYCQSTYYGNDGNAFGTGTKVTVLGGGGGSGGGGSGGGGSGGGGSEVQLVESGGGLVQPGGSLRLSCAASGFSFSANYYPCWVRQAPGKGLEWIGCIYGGSSDITYDANWTKGRFTISRDNSKNTVYLQMNSLRAEDTAVYYCARSAWYSGWGGDLWGQGTLVTVSS
notes: anti-CD137 scFv; also called 38-27-A11 sc02 scFv

Kd (Fc tagged human PDL1): 0.0098 nM | kon (Fc tagged human PDL1): 3.4e+06 M⁻¹ s⁻¹ | Kd (Fc tagged human CD137): 1.1 nM | kon (Fc tagged human CD137): 320000 M⁻¹ s⁻¹ | IC50 (ng/ml), NF-AT potency assay, +HSA (human PDL1 on cells): 54.8 ng/mL | rel. IC50 (avelumab/test), +HSA (human PDL1 on cells): 0.68 fold | IC50 (ng/ml) (EC50 in Table 16C), NFkB reporter, HCC827 + IFNg, 6 h, +HSA [1]: 20.1 ng/mL | IC50 (ng/ml) (EC50 in Table 16C), NFkB reporter, HCC827 + IFNg, 24 h, +HSA [1]: 7.24 ng/mL | rel. IC50 (PRO1186/test), 6 h [1]: 0.55 fold | rel. IC50 (PRO1186/test), 24 h [1]: 1.23 fold | IC50 (biotinylated human PDL1 [2]): 8.18 ng/mL | rel. IC50 (IC50 avelumab/IC50 test) (biotinylated human PDL1 [2]): 1.51 fold | IC50 (biotinylated human PDL1 [3]): 1.78 ng/mL | rel. IC50 (IC50 avelumab/IC50 test) (biotinylated human PDL1 [3]): 1.24 fold
B5: PRO1482 (other)
chain: DIQMTQSPSSLSASVGDRVTITCQASQSINNVLAWYQQKPGKAPKLLIYRASTLASGVPSRFSGSGSGTDFTLTISSLQPEDFATYYCQSSYGNYGDFGCGTKVTVLGGGGGSEVQLVESGGGLVQPGGSLRLSCAASGFSFNSDYWIYWVRQAPGKGLEWIASIYGGSSGNTQYASWAQGRFTISRDNSKNTVYLQMNSLRAEDTAVYFCARGYVDYGGATDLWGQGTLVTVSSGGGGSGGGGSGGGGSGGGGSIQMTQSPASLSASVGDRVTITCQASQSIGTYLAWYQQKPGKPPKLLIYRAFILASGVPSRFSGSGSGTDFTLTISSLQPEDFATYYCQSNFYSDSTTIGPNAFGTGTKVTVLGGGGGSEVQLVESGGGLVQPGGSLRLSCAASGFSFSNSYWICWVRQAPGKCLEWIGCTFVGSSDSTYYANWAKGRFTISRDNSKNTVYLQMNSLRAEDTAVYYCARHPSDAVYGYANNLWGQGTLVTVSSGGGGSGGGGSIQMTQSPSSLSASVGDRVTITCQSSESVYSNNQLSWYQQKPGQPPKLLIYDASDLASGVPSRFSGSGSGTDFTLTISSLQPEDFATYYCAGGFSSSSDTAFGGGTKLTVLGGGGGSGGGGSGGGGSGGGGSEVQLVESGGGLVQPGGSLRLSCAASGFSLSSNAMGWVRQAPGKGLEYIGIISVGGFTYYASWAKGRFTISRDNSKNTVYLQMNSLRAEDTATYFCARDRHGGDSSGAFYLWGQGTLVTVSS
notes: trispecific scDb-scFv; also called 37-20-B03 sc09.1 scDb-i/38-02-A04 sc13 scDb-o/19-01-H04 sc03 scFv

Kd (Fc tagged human CD137): 1.47 nM
B6: PRO1352 (scFv)
scFv: DIQMTQSPSSLSASVGDRVTITCQASQSINNVLAWYQQKPGKAPKLLIYRASTLASGVPSRFSGSGSGTDFTLTISSLQPEDFATYYCQSSYGNYGDFGCGTKVTVLGGGGGSGGGGSGGGGSGGGGSEVQLVESGGGLVQPGGSLRLSCAASGFSFSNSYWICWVRQAPGKCLEWIGCTFVGSSDSTYYANWAKGRFTISRDNSKNTVYLQMNSLRAEDTAVYYCARHPSDAVYGYANNLWGQGTLVTVSS
notes: also called scFv of 38-02-A04 sc13

Kd (Fc tagged human PDL1): 0.00594 nM
B9: PRO908 (scFv)
scFv: DIQMTQSPSSLSASVGDRVTITCQASQSIGTYLAWYQQKPGKAPKLLIYRAFILASGVPSRFSGSGSGTDFTLTISSLQPEDFATYYCQSNFYSDSTTIGPNAFGTGTKVTVLGGGGGSGGGGSGGGGSGGGGSQVQLQESGPGLVKPSETLSLTCKVSGFSFNSDYWIYWIRQPPGKGLEWIGSIYGGSSGNTQYASWAQGRVTISVDSSKNQFSLKLSSVTAADTAVYYCARGYVDYGGATDLWGQGTLVTVSS
notes: also called scFv of 37-20-B03 sc01

From US20230192897A1 (NUMAB THERAPEUTICS, published 2023)
